Columns and labels:
[1] = target: canine parvovirus CPV-2b (canine parvovirus CPV-2b); assay: cell-based or functional assay
[2] = target: recombinant canine parvovirus CPV2b capsid (Advanced ImmunoChemical Inc Cat #8-CPV) (canine parvovirus CPV2b); assay: BLI (Octet), biotinylated antibody on streptavidin tips, VLP at 40 µg/mL as analyte, 1:1 fit

Molecule | CPV-2b HI (hemagglutination inhibition) [1] | Kd [2] [nM]
irrelevant canine IgG (antibody) | < 20 | –
Chimeric Canine Mab A v2 (antibody) heavy: QVQLKESGPGLVAPSQTLSLTCTVSGFSLSSYHVHWVRQPPGKGLEWLGVMWNDGDTSYNLALNSRLSISRDTSKSQVFFKMSSLQTEDTATYYCARPELPGLTYGVWFPYWGQGTLVTVSAASTTAPSVFPLAPSCGSTSGSTVALACLVSGYFPEPVTVSWNSGSLTSGVHTFPSVLQSSGLYSLSSMVTVPSSRWPSETFTCNVAHPASKTKVDKPVPKRENGRVPRPPDCPKCPAPEMLGGPSVFIFPPKPKDTLLIARTPEVTCVVVDLDPEDPEVQISWFVDGKQMQTAKTQPREEQFNGTYRVVSVLPIGHQDWLKGKQFTCKVNNKALPSPIERTISKARGQAHQPSVYVLPPSREELSKNTVSLTCLIKDFFPPDIDVEWQSNGQQEPESKYRTTPPQLDEDGSYFLYSKLSVDKSRWQRGDTFICAVMHEALHNHYTQESLSHSPGK light: DIVMTQTPASMSISVGDRVTMNCKASQNVDSNVDWYQQKTGQSPNLLIYKASNRNTGVPDRFTGSGSGTDFTFTISNMQAEDLAVYYCMQSTSYPLTFGSGTKLEIKRNDAQPAVYLFQPSPDQLHTGSASVVCLLNSFYPKDINVKWKVDGVIQDTGIQESVTEQDKDSTYSLSSTLTMSSTEYLSHELYSCEITHKSLPSTLIKSFQRSECQRVD | – | 0.0978
Chimeric Canine Mab B v2 (antibody, V domains shown) VH: QVQLKESGPGLVQPSETLSLTCTVSGFSLTSYGVSWVRQPPGKGLEWMGTMWNDGDTDYNSALRSKLSISRDTSKSQVFLKMNSLQTEDTAIYYCARSQLPGYNLRGWFVYWGQGTLVIVSA VL: DIQMTQSPPVLSASVGDRVTLSCKASHNINKNLEWYQQKLGEAPKLLIYYANNLQTGIPSRFSGSGSGTDYTLTISSLQPEDVATYYCYQYNSGHTFGAGTKLEIKR | – | 0.00938

From patent US20220267414A1
